Data published in paper PMC12891897, “Blocking TRIM47-mediated HNF4α degradation suppresses hepatocellular carcinoma progression” (Acta Pharmaceutica Sinica. B, 2025).

Experiments:
[1] = molecular target: Flag-tagged TRIM47 (tripartite motif 47), full length (amino acids 1–638), Q96LD4-1; assay: Co-IP (IP-Flag) and Western blotting, V5 band quantified; settings: HEK293T cells, co-transfected for 48 h; parent: 1
[2] = molecular target: V5-tagged HNF4α (hepatocyte nuclear factor 4alpha), full length (amino acids 1–474), P41235-1; assay: as above; settings: HEK293T cells, transfected for 48 h; parent: 1

Flag-tagged TRIM47 (tripartite motif 47), full length (amino acids 1–638), Q96LD4-1, sequence (Q96LD4 whole entry, the tested form may be a part): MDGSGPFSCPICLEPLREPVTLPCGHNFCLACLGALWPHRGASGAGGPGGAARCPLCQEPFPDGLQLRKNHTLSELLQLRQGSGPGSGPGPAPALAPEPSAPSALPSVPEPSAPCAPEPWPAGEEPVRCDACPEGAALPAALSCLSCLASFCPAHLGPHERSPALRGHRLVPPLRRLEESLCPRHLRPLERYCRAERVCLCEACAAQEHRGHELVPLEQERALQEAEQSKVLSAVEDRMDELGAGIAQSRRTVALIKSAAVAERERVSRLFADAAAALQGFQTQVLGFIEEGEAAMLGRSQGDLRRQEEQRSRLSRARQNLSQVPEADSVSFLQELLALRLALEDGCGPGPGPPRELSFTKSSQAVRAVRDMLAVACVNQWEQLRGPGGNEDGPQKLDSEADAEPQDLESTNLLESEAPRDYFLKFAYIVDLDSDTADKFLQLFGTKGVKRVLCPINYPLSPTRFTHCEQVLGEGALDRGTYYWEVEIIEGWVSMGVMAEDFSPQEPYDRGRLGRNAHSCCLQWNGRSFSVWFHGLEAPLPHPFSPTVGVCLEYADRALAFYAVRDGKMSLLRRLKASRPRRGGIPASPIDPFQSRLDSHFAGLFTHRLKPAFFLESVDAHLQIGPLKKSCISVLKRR

| Substance | ratio to parent [1] [Fold] | ratio to parent [2] [Fold] |
| --- | --- | --- |
| V5-tagged HNF4α (hepatocyte nuclear factor 4alpha), full length (amino acids 1–474) (from UniProt P41235-1) K342A | 0.56 | – |
| Flag-tagged TRIM47 (tripartite motif 47), full length (amino acids 1–638) (from UniProt Q96LD4-1) K534A; K600A | – | 0.49 |
| Flag-tagged TRIM47 (tripartite motif 47), full length (amino acids 1–638) (from UniProt Q96LD4-1) K534A | – | 0.79 |
| V5-tagged HNF4α (hepatocyte nuclear factor 4alpha), full length (amino acids 1–474) (from UniProt P41235-1) K342A; W349A; E353A | 0.23 | – |
| V5-tagged HNF4α (hepatocyte nuclear factor 4alpha), full length (amino acids 1–474) (from UniProt P41235-1) W349A | 0.49 | – |
| V5-tagged HNF4α (hepatocyte nuclear factor 4alpha), full length (amino acids 1–474) (from UniProt P41235-1) E353A | 0.38 | – |
| Flag-tagged TRIM47 (tripartite motif 47), full length (amino acids 1–638) (from UniProt Q96LD4-1) K600A | – | 0.83 |
